Measurements from US11633477B2, “Treatment of cornea using laminin” (KYOTO PREFECTURAL PUBLIC UNIVERSITY CORPORATION, priority 2014, dated 2023).
Where a name gives a salt, the structure may show the parent alone.

B1: laminin 511-E8 fragment: E8 fragment of human laminin α5β1γ1 (Nippi. Inc., 382-02413) (protein)
chain 1: AAEDAAGQALQQADHTWATVVRQGLVDRAQQLLANSTALEEAMLQEQQRLGLVWAALQGARTQLRDVRAKKDQLEAHIQAAQAMLAMDTDETSKKIAHAKAVAAEAQDTATRVQSQLQAMQENVERWQGQYEGLRGQDLGQAVLDAGHSVSTLEKTLPQLLAKLSILENRGVHNASLALSASIGRVRELIAQARGAASKVKVPMKFNGRSGVQLRTPRDLADLAAYTALKFYLQGPEPEPGQGTEDRFVMYMGSRQATGDYMGVSLRDKKVHWVYQLGEAGPAVLSIDEDIGEQFAAVSLDRTLQFGHMSVTVERQMIQETKGDTVAPGAEGLLNLRPDDFVFYVGGYPSTFTPPPLLRFPGYRGCIEMDTLNEEVVSLYNFERTFQLDTAVDRPCARSKSTGDPWLTDGSYLDGTGFARISFDSQISTTKRFEQELRLVSYSGVLFFLKQQSQFLCLAVQEGSLVLLYDFGAGLKKAVPLQPPPPLTSASKAIQVFLLGGSRKRVLVRVERATVYSVEQDNDLELADAYYLGGVPPDQLPPSLRRLFPTGGSVRGCVKGIKALGKYVDLKRLNTTGVSAGCTADLLVGRAMTFHGHGFLRLALSNVAPLTGNVYSGFGFHSAQDSALLYYRASPDGLCQVSLQQGRVSLQLLRTEVKTQAGFADGAPHYVAFYSNATGVWLYVDDQLQQMKPHRGPPPELQPQPEGPPRLLLGGLPESGTIYNFSGCISNVFVQRLLGPQRVFDLQQNLGSVNVSTGCAPALQAQTPGLGPRGLQATARKASRRSRQPARHPA
chain 2: LQHSAADIARAEMLLEEAKRASKSATDVKVTADMVKEALEEAEKAQVAAEKAIKQADEDIQGTQNLLTSIESETAASEETLFNASQRISELERNVEELKRKAAQNSGEAEYIEKVVYTVKQSAEDVKKTLDGELDEKYKKVENLIAKKTEESADARRKAEMLQNEAKTLLAQANSKLQLLKDLERKYEDNQRYLEDKAQELARLEGEVRSLLKDISQKVAVYSTCL
chain 3: EANDILNNLKDFDRRVNDNKTAAEEALRKIPAINQTITEANEKTREAQQALGSAAADATEAKNKAHEAERIASAVQKNATSTKAEAERTFAEVTDLDNEVNNMLKQLQEAEKELKRKQDDADQDMMMAGMASQAAQEAEINARKAKNSVTSLLSIINDLLEQLGQLDTVDLNKLNEIEGTLNKAKDEMKVSDLDRKVSDLENEAKKQEAAIMDYNRDIEEIMKDIRNLEDIRKTLPSGCFNTPSIEKP

Key:
[1] = tested on: rabbit bullous keratopathy model; test: Adhesion of injected cells to substrate after 24 hours in rabbit bullous keratopathy model, laminin with ROCK inhibitor; assay type: in vivo; conditions: average; 24 hours after injection of cultured RCEC into anterior chamber; Y-27632 100 μM in both groups, with or without laminin 511-E8 fragments 2.1 nM
Description: A rabbit corneal endothelium was mechanically detached to make a bullous keratopathy model. Adhesion of injected cells to a substrate after 24 hours was compared between individuals injected with cultured rabbit corneal endothelial cells together with a ROCK inhibitor Y-27632 (+) (100 μM) into the anterior chamber and individuals injected with cells together with laminin 511-E8 fragments (2.1 nM) and Y-27632 (+) (100 μM). The rabbit was euthanized after 24 hours. Corneal tissue was extracted and subjected to phalloidin staining to evaluate the morphology and cell count of adhered cells.

[2] = tested on: human corneal endothelial cells; test: Adhesion of corneal endothelial cells (CellTiter-Glo, 24 hours after seeding); assay type: cell-based; conditions: laminin 511-E8 fragments 2.1 nM added on seeding; relative to fragment free cells; HCEC
Description: The medium was completely removed from a culture dish culturing human corneal endothelial cells. The cells were washed twice with PBS (−). After washing, phosphate buffer was added, and the mixture was incubated for 5 minute at 37° C. (5% CO2). Subsequently, PBS (−) was removed and TrypLE™ Select (10×) (Life Technologies, A12177-01) was added. The mixture was incubated for 10 minutes at 37° C. (5% CO2). Opti-MEMI (Life Technologies, 31985-070) was then added to collect the cells. After collecting the cells, the cells were centrifuged for 3 minutes at 1200 rpm to make a cell suspension with Opti-MEM I. At this time, a laminin 511-E8 fragment free group was prepared as a control, as well as a group supplemented with laminin 511-E8 fragments so that the final concentration was 2.1 nM. At the same time, mouse IgG and integrin neutralizing antibody were added to the laminin 511-E8 fragment added group to adjust the final concentration to 2 μg/ml. After the adjustment, cells were seeded on a 96-well plate at 5000 cells/well and were incubated for 24 hours at 37° C. (5% CO2). After 24 hours of seeding, the medium was completely removed and the cells were washed twice with PBS (−). After washing, a medium and CellTiter-Glo Luminescent Cell Viability Assay (Promega Corporation, Madison, Wis.) were added at a ratio of 1:1. […]

p-Paxillin = test: Western blot of cell adhesion associated protein p-Paxillin in corneal endothelial cells; assay type: cell-based, human; conditions: HCEC; laminin 511-E8 fragments 2.1 nM; three hours after seeding
Description: (§1) The medium was completely removed from a culture dish culturing human corneal endothelial cells. The cells were washed twice with PBS (−). After washing, phosphate buffer was added, and the mixture was incubated for 5 minute at 37° C. (5% CO2). Subsequently, PBS (−) was removed and TrypLE™ Select (10×) (Life Technologies, A12177-01) was added. The mixture was incubated for 10 minutes at 37° C. (5% CO2). Opti-MEMI (Life Technologies, 31985-070) was then added to collect the cells. After collecting the cells, the cells were centrifuged for 3 minutes at 1200 rpm to make a cell suspension with Opti-MEM I. At this time, a laminin 511-E8 fragment free group was prepared as a control, as well as a group supplemented with laminin 511-E8 fragments so that the final concentration was 2.1 nM. At the same time, mouse IgG and integrin neutralizing antibody were added to the laminin 511-E8 fragment added group to adjust the final concentration to 2 μg/ml. After adjustment, cells were seeded on a 12-well plate at 1×10^5 cells/well and proteins were collected after three hours of seeding. Western blot was used to detect Phospho-FAK (Cell Signaling TECHNOLOGY, 8556S), FAK (Cell Signaling TECHNOLOGY, 32855), and p-Paxillin (Cell Signaling TECHNOLOGY, 2541S). The dilution factor for each antibody was 1:1000. The densitometry was quantified using Image J.

[3] = tested on: monkey bullous keratopathy model; test: Cultured corneal endothelium transplantation in monkey bullous keratopathy model with laminin 511-E8 fragments; assay type: in vivo; conditions: cynomolgus monkey
Description: A cynomolgus monkey corneal endothelium was mechanically detached using a 20 gauge silicone needle (Soft Tapered Needle; Inami & Co., Ltd., Tokyo, Japan) to make a bullous keratopathy model. In FIG. 9, […] cultured monkey corneal endothelial cells were injected with DMEM containing laminin 511-E8 fragments adjusted to a concentration of 2.1 nM into the anterior chamber of the bullous keratopathy model, which was maintained in a face-down posture for three hours. In FIG. 10, the Descemet's membrane was detached in a produced bullous keratopathy model and, similarly, 5.0×10^5 cultured monkey corneal endothelial cells were injected with DMEM containing laminin 511-E8 fragments adjusted to a concentration of 2.1 nM into the anterior chamber of the bullous keratopathy model, which was maintained in a face-down posture for three hours.
The corneal thickness was measured with an ultrasound pachymeter (SP-2000; Tomey, Nagoya, Japan). When unmeasurable, 1200 μm, which is the measurable upper limit value, was used.

[4] = tested on: rabbit bullous keratopathy model; test: Cultured corneal endothelium transplantation in rabbit bullous keratopathy model with or without Descemet's membrane detachment, laminin with ROCK inhibitor (4 groups); assay type: in vivo; conditions: 14 days after transplantation, laminin 511-E8 fragment (2.1 nM) added group, with Y-27632 100 μM
Description: Tests were conducted with 4 groups of 4 rabbits, i.e., group injected with cultured corneal endothelial cells together with Y-27632 (+) (100 μM) after detaching corneal endothelial cells without detaching the Descemet's membrane, group injected with cells together with laminin 511-E8 fragments (2.1 nM) and Y-27632 (+) (100 μM) after detaching corneal endothelial cells without detaching the Descemet's membrane, group in which a bullous keratopathy model with detached Descemet's membrane was injected with cells together with Y-27632 (100 μM), and group in which a bullous keratopathy model with detached Descemet's membrane was injected with cells together with laminin 511-E8 fragments (2.1 nM) and Y-27632 (+) (100 μM).
The corneal thickness was measured with an ultrasound pachymeter (SP-2000; Tomey, Nagoya, Japan). When unmeasurable, 1200 μm, which is the measurable upper limit value, was used. Further, the ocular pressure was measured with a Tonovet (M. E. Technica, Tokyo).
The histological examination shown in FIG. 8 was conducted in the same manner as in Example 1.

p-FAK = test: Western blot of cell adhesion associated protein Phospho-FAK in corneal endothelial cells; assay type: cell-based, human; conditions: HCEC; laminin 511-E8 fragments 2.1 nM; three hours after seeding
Description: as §1

[5] = tested on: rabbit bullous keratopathy model; test: Cultured corneal endothelium transplantation in rabbit bullous keratopathy model using laminin 511-E8 fragment; assay type: in vivo
Description: A rabbit corneal endothelium was mechanically detached using a 20 gauge silicone needle (Soft Tapered Needle; Inami & Co., Ltd., Tokyo, Japan) to make a bullous keratopathy model. The control group is a produced model that was not injected with cells. The RCEC group was injected with cultured rabbit corneal endothelial cells in the anterior chamber of the produced model and was maintained in a face-down posture for three hours. Further, the RCEC+E8 group was injected with cultured rabbit corneal endothelial cells, together with DMEM containing laminin 511-E8 fragments adjusted to a concentration of 2.1 nM, into the anterior chamber of the produced model and was maintained in a face-down posture for three hours.
The corneal thickness of an individual produced in FIG. 1 was measured sequentially with an ultrasound pachymeter (SP-2000; Tomey, Nagoya, Japan). When unmeasurable, 1200 μm, which is the measurable upper limit value, was used.
The histological examination in FIG. 3 was conducted as follows. The examination was checking normal functioning with immunostaining using Na^+/K^+-ATPase and ZO-1. This is for examining the functions of corneal endothelial cells, pumping function and barrier function. Na^+/K^+-ATPase and ZO-1 indicate normalcy of corneal endothelial cell functions, pumping function and barrier function, respectively. The approach is as follows.
After cells were immobilized, ZO-1 and Na^+/K^+-ATPase were used as function associated markers and immunostaining was applied for observation with a fluorescence microscope. For tissue staining inspection, cornea tissue extracted from a rabbit was immobilized with 4% formaldehyde for 10 minutes at room temperature (RT) and was incubated for 30 minutes with 1% bovine serum albumin (BSA). To find the phenotype of regenerated corneal endothelial tissue, immunohistochemical analysis was performed on an adhesion binding associated protein ZO-1 and pumping function associated protein Na^+/K^+-ATPase. ZO-1 and Na^+/K^+-ATPase were used as markers associated with cell functions. ZO-1 and Na^+/K^+-ATPase were stained using 1:200 dilution of ZO-1 polyclonal antibodies (Zymed Laboratories, Inc., South San Francisco, Calif.) and Na^+/K^+-ATPase monoclonal antibodies (Upstate Biotec, Inc., Lake Placid, N.Y.). 1:2000 dilution of Alexa Fluor®488 label (Life Technologies Corp., Carlsbad, Calif.) was used as the secondary antibody. The nucleus of cells was then stained with DAPI (Vector Laboratories, Inc., Burlingame, Calif.). The cell morphology was further stained with 1:400 dilution of Alexa Fluor® 488-conjugated phalloidin (Life Technologies Corp., Carlsbad, Calif.). The slide was then observed under a fluorescence microscope (TCS SP2 AOBS; Leica Microsystems, Welzlar, Germany).

[6] = tested on: monkey bullous keratopathy model; test: Laminin coating of corneal stroma in Descemet's membrane detached monkey bullous keratopathy model, then cell transplantation; assay type: in vivo; conditions: cynomolgus monkey, laminin 511-E8 21 nM in anterior chamber for one hour (coating), then MCEC with 2.1 nM
Description: A cynomolgus monkey corneal endothelium was mechanically detached using a 20 gauge silicone needle (Soft Tapered Needle; Inami & Co., Ltd., Tokyo, Japan) to make a bullous keratopathy model. The Descemet's membrane was detached in the produced bullous keratopathy model. Laminin 511-E8 fragments were injected into the anterior chamber of the bullous keratopathy model at a concentration of 21 nM and the model was left standing for one hour. The corneal stroma exposed by detaching the Descemet's membrane was coated thereby in the living body. Subsequently, 5.0×10^5 cultured monkey corneal endothelial cells were injected with DMEM containing laminin 511-E8 fragments adjusted to a concentration of 2.1 nM into the anterior chamber of the bullous keratopathy model, which was maintained in a face-down posture for three hours as in Example 3.

[7] = rabbit cornea after transplantation of RCEC with laminin 511-E8 fragments 2.1 nM

Row | Molecule | adhering cell density [1] [cells/mm^2] | number of adhering cells after 24 hours [2] [%] | p-Paxillin (p-Paxillin) | cornea appearance (anterior ocular segment pictures) ([3]; Descemet's membrane detached, 5.0x10^5 MCEC with laminin 511-E8 2.1 nM, no coating) | corneal thickness becoming thin ([3]; Descemet's membrane detachment group) | healing of bullous keratopathy (anterior ocular segment pictures) ([3]; no Descemet's membrane detachment, 5.0x10^5 MCEC with laminin 511-E8 2.1 nM, up to Day 14) | corneal thickness becoming thin ([3]; without Descemet's membrane detachment) | cell morphology by phalloidin staining [4] | p-FAK (p-FAK) | corneal thickness ([5]; average on day 7, RCEC injected with laminin 511-E8 fragments 2.1 nM, ultrasound pachymeter) [μm] | N-cadherin (adherence junction) immunostaining [5, 7] | Na+/K+-ATPase (pumping function) immunostaining [5, 7] | ZO-1 (tight junction, barrier function) immunostaining [5, 7] | cell morphology by phalloidin staining [5, 7] | cornea appearance in pictures of anterior ocular segment ([5]; rabbit, cultured RCEC injected into anterior chamber with or without laminin 511-E8 fragments 2.1 nM, after one and two weeks) | cornea appearance (anterior ocular segment pictures) [6]
1 | C[C@@H](N)[C@H]1CC[C@H](C(=O)Nc2ccncc2)CC1 [Y-27632, (R)-(+)-trans-(4-pyridyl)-4-(1-aminoethyl)-cyclohexanecarboxamide dihydrochloride monohydrate, reference compound] | 717.3 |  |  |  |  |  |  |  |  |  |  |  |  |  |  | 
2 | B1 | 1662.8 | 137.3±2.8 | promoted | not transparent or healed | did not become thin | heal bullous keratopathy | it did | normal monolayer polygonal morphology | promoted | 637 | normally expressed | expressed | expressed | monolayer polygonal morphology | transparent and healed | transparent and healed
